B1: WASH complex subunit homolog 3 (Caenorhabditis elegans), O01901 (parent)
chain: MNASSRTKPAIDLNKVPPIDHHRTAVTFNCLIMKMTEMLNNFGNKMEDILEKAEQSLDTADRKLRLMESKLAGMSLEDKSTTATPSSAPEIDEIHESNPSSSQIVEETVEEKPEEHTTTVLIKDDPAYSKYFKMLKLGVLEAGVIQKMKSEGVDPSILKRGDEPSRPQAQTSRNYESSGESTASFSDSD
partner: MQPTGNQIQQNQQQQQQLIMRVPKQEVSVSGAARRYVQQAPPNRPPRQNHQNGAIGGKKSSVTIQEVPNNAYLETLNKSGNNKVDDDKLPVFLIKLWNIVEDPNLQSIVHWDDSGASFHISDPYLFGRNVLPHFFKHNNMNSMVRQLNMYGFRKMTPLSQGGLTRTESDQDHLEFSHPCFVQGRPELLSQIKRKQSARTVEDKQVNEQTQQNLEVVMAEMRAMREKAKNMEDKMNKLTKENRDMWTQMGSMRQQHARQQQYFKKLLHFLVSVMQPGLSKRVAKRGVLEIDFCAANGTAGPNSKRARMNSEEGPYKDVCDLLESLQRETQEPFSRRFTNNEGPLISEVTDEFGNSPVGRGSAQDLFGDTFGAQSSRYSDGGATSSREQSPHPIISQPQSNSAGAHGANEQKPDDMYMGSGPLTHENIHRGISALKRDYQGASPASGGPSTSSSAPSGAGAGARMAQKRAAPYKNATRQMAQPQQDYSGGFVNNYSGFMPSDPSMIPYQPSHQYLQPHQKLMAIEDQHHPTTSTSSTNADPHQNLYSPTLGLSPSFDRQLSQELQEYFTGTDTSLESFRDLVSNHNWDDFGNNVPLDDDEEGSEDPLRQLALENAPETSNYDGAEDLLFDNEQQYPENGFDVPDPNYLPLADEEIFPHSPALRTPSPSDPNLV

Variants of: B1
Conditions: with hsf1_caeel hsf-1, G5EFT5

Row | Variant | effect of a mutation on the interaction
1 | MNASSRTKPAIDLNKVPPIDHHRTAVTFNCLIMKMTEMLNNFGNKMEDILEKAEQSLDTADRKLRLMESKLAGMSLEDKSTTATPSSAPEIDEIHESNPSSSQIVEETVEEKPEEHTTTVLIKDDPAYSKYFKMLKLGVLEAGVIQKMKSEGVDPSILKRGDEPSRPQAQTSRNYESSGESAASFSDSD [T182A] | increasing interaction
